Reference: article PMC6648896 (Nucleic Acids Research, 2019)

Molecular target: E. coli RNAP core enzyme (E. coli, UniProt P0A7Z4;P0A8V2;P0A8T7;P0A800)
Test: fluorescence polarisation

E. coli RNAP core enzyme, sequence (P0A7Z4 whole entry, chain 1 of 4): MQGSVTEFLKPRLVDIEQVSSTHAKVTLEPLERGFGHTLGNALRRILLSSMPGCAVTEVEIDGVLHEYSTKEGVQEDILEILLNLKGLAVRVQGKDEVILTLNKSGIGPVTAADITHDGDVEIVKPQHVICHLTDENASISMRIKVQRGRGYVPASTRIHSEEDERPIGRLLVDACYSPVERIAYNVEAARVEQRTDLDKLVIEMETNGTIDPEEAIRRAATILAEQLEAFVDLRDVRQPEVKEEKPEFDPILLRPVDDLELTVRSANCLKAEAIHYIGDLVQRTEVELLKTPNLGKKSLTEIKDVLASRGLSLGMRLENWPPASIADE
E. coli RNAP core enzyme, sequence (P0A8V2 whole entry, chain 2 of 4): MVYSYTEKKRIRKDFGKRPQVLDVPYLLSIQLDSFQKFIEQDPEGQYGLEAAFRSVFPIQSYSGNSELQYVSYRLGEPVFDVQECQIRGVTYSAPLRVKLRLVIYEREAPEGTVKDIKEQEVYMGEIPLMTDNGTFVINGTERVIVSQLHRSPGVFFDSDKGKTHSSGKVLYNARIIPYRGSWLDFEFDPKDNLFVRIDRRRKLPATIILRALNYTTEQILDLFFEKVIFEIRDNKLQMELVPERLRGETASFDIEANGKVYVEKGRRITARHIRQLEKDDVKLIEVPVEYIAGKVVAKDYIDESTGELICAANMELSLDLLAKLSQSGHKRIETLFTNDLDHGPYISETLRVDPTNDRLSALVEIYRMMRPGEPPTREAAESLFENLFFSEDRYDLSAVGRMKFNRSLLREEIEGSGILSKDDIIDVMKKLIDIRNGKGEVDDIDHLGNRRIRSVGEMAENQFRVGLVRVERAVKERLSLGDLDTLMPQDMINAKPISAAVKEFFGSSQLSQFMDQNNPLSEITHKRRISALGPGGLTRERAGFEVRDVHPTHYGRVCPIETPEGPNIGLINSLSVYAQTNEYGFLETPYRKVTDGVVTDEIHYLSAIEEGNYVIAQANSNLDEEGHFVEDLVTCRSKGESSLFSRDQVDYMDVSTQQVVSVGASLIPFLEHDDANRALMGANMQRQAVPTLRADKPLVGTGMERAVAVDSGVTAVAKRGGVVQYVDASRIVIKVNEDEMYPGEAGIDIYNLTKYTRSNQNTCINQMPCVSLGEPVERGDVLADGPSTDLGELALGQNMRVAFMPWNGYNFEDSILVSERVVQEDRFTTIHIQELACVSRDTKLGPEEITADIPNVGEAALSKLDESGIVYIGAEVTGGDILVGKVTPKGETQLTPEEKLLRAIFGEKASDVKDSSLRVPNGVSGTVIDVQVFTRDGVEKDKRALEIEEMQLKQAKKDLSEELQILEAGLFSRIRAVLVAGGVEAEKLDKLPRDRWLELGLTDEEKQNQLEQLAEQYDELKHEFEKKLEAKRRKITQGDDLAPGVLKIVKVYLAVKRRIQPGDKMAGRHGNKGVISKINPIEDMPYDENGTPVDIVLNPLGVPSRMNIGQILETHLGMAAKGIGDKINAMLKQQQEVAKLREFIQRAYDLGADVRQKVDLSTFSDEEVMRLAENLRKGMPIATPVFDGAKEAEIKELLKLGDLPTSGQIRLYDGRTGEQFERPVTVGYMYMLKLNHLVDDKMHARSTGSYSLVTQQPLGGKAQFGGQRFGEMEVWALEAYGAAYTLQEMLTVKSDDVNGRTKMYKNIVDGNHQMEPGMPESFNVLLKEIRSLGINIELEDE
E. coli RNAP core enzyme, sequence (P0A8T7 whole entry, chain 3 of 4): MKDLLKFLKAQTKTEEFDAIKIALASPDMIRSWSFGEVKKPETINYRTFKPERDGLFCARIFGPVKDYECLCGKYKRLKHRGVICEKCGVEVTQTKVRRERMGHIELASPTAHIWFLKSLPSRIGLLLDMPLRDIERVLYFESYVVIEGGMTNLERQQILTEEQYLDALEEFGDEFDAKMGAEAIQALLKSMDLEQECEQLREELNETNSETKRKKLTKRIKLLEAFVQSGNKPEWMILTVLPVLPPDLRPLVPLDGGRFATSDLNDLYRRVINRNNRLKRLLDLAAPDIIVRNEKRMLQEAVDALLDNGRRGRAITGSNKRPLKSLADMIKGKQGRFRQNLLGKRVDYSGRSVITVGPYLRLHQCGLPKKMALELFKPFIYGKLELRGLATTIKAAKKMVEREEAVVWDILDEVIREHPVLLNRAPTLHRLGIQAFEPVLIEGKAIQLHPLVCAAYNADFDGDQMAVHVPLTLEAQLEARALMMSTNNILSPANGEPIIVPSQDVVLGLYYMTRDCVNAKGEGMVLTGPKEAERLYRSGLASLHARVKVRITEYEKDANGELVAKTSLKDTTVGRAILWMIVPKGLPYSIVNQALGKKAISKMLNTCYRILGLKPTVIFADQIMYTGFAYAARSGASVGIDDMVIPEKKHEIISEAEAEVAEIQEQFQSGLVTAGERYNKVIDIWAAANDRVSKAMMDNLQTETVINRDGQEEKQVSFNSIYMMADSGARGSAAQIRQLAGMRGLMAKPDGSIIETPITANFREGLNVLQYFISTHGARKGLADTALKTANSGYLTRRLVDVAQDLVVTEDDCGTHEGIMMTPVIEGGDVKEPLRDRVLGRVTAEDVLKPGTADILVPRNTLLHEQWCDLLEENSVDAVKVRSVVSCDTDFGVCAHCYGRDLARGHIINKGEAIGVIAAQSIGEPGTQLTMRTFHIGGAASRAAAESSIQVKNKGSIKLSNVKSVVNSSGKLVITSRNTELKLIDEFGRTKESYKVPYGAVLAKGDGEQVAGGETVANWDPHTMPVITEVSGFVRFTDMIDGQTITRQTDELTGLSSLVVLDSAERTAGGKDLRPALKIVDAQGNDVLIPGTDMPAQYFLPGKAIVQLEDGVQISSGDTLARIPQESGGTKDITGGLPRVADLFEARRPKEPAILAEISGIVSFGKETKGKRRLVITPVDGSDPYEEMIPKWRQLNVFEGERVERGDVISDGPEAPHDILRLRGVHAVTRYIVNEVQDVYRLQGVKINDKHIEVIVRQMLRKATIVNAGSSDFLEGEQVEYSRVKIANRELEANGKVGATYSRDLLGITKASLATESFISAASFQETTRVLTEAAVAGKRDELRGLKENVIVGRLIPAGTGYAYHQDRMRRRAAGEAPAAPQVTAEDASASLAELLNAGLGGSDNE
E. coli RNAP core enzyme, sequence (P0A800 whole entry, chain 4 of 4): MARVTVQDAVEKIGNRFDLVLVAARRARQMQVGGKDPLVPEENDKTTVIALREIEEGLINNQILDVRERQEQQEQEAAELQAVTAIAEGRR

B1: fluorescein-labeled E. coli σ^E (natural protein)
chain: MSEQLTDQVLVERVQKGDQKAFNLLVVRYQHKVASLVSRYVPSGDVPDVVQEAFIKAYRALDSFRGDSAFYTWLYRIAVNTAKNYLVAQGRRPPSSDVDAIEAENFESGGALKEISNPENLMLSEELRQIVFRTIESLPEDLRMAITLRELDGLSYEEIAAIMDCPVGTVRSRIFRAREAIDNKVQPLIRR
modifications: fluorescein at residue C165
Kd: ~53 nM
